This note sets out measurements from publication PMC10808743, “Generation of human TMEM16F-specific affibodies using purified TMEM16F” (Frontiers in Molecular Biosciences, 2023).

This series concerns the molecule itself. Description: SEC; 40 μg TMEM16F (0.4 mg/mL) incubated with 40 μg #50 affibody (0.5 mg/mL) for 2 h at 4°C, separated on Superose 6 FPLC; fractions around 14.8 mL analysed by SDS-PAGE and Western blot. In general terms: Size exclusion chromatography separates by hydrodynamic size, large species first.

B1: human TMEM16F (hTMEM16F) variant 1, SBP-tagged, purified (natural protein, UniProt Q4KMQ2-1 1-910, looked up)
chain: MKKMSRNVLLQMEEEEDDDDGDIVLENLGQTIVPDLGSLESQHDFRTPEFEEFNGKPDSLFFNDGQRRIDFVLVYEDESRKETNKKGTNEKQRRKRQAYESNLICHGLQLEATRSVLDDKLVFVKVHAPWEVLCTYAEIMHIKLPLKPNDLKNRSSAFGTLNWFTKVLSVDESIIKPEQEFFTAPFEKNRMNDFYIVDRDAFFNPATRSRIVYFILSRVKYQVINNVSKFGINRLVNSGIYKAAFPLHDCKFRRQSEDPSCPNERYLLYREWAHPRSIYKKQPLDLIRKYYGEKIGIYFAWLGYYTQMLLLAAVVGVACFLYGYLNQDNCTWSKEVCHPDIGGKIIMCPQCDRLCPFWKLNITCESSKKLCIFDSFGTLVFAVFMGVWVTLFLEFWKRRQAELEYEWDTVELQQEEQARPEYEARCTHVVINEITQEEERIPFTAWGKCIRITLCASAVFFWILLIIASVIGIIVYRLSVFIVFSAKLPKNINGTDPIQKYLTPQTATSITASIISFIIIMILNTIYEKVAIMITNFELPRTQTDYENSLTMKMFLFQFVNYYSSCFYIAFFKGKFVGYPGDPVYWLGKYRNEECDPGGCLLELTTQLTIIMGGKAIWNNIQEVLLPWIMNLIGRFHRVSGSEKITPRWEQDYHLQPMGKLGLFYEYLEMIIQFGFVTLFVASFPLAPLLALVNNILEIRVDAWKLTTQFRRLVPEKAQDIGAWQPIMQGIAILAVVTNAMIIAFTSDMIPRLVYYWSFSVPPYGDHTSYTMEGYINNTLSIFKVADFKNKSKGNPYSDLGNHTTCRYRDFRYPPGHPQEYKHNIYYWHVIAAKLAFIIVMEHVIYSVKFFISYAIPDVSKRTKSKIQREKYLTQKLLHENHLKDMTKNMGVIAERMIEAVDNNLRPKSE
notes: Human TMEM16F variant 1 (anoctamin-6), cDNA clone NM_001025356.2 bought from Genescript; called 'purified whole TMEM16F protein' in the discussion; In one BLI experiment the same protein was incorporated into nanodiscs (MSP 2N2, Addgene #29520; POPC:POPG 3:1; TMEM16F:MSP:lipid 1:5:100) under detergent-free conditions; also called purified human TMEM16F protein; TMEM16F-nanodisc complex (when …)
By stoichiometry N is commonly meant the number of molecules, sites or subunits per partner or assembly. For B1, the “stoichiometry N” value was 2.
